The chains are these.
B1: H8 scFv (scFv, V domains shown)
VH: QVQLVQSGAEVKKPGSSVKVSCKASGGTFSSYAISWVRQAPGQGLEWMGGIIPIFGTANYAQKFQGRVTITADESTSTAYMELSSLRSEDTAVYYCAIHGGDRSYWGQGTLVTVSS
VL: QSVLTQSPGTLSLSPGERATLSCRASQSVSSNYLAWYLQKPGQAPRLLISGASSRATGIPDRFSGSGSGTDFTLTISRLEPEDFAVYYCQQYAGSPFTFGPGTKLTVL
notes: VL of the second round pool paired with XB1511 VH
B2: H10 scFv (scFv, V domains shown)
VH: B1 VH
VL: QSVLTQSPDFQSVSPKDKVTITCRASQSIGSSLHWYQQKPGQSPKLLIKYSSQSFSGVPSRFSGSASGTEFTLTITGLEAEDAATYYCHQSSSLPHTFGQGTKVTVL
notes: as for B1
B3: H11 scFv (scFv, V domains shown)
VH: B1 VH
VL: QSVLTQSPDFQSVTPKEKVTITCRASQSIGSSLHWYQQKPDQSPKLLITFASQSFSGVPSRFSGSGSGTDFTLTINSLEAEDAATYYCHQSRNLPFTFGPGTKLTVL
notes: as for B1
B4: H10 VL (other)
VL domain: B2 VL
notes: unpaired VL domain; also called unpaired H10 VL domain
B5: H11 VL (other)
VL domain: B3 VL
notes: unpaired VL domain; also called unpaired H11 VL domain
B6: C7 VL (other)
VL domain: DIVMTQTPLSLSVTPGQPASISCKSSQSLLHSDGKTHLFWYLQRPGQSPQLLIYEVSGRFSGVSERFSGSGSGTDFTLKISRVEAEDVGVYYCMQGLHIPHTFGQGTKVEIK
notes: unpaired VL domain; also called unpaired C7 VL domain
B7: B11 VL (other)
VL domain: B1 VL with L38Q, S50Y, T57S, D61V, F63V, A93G, G94S, F97W, P101Q
notes: unpaired VL domain; also called unpaired B11 VL domain
B8: H8 VL (other)
VL domain: B1 VL
notes: unpaired VL domain; also called unpaired H8 VL domain
B9: A8 VL (other)
VL domain: QAGLTQSPDFQSVTPKERVTITCRASRYIGSNLHWYQQKPDQPPKLLIKLASQSFSGVPPRFSGGGSGTDFTLTINGLEAEDAATYYCHQTGSFPYTFGQGTKLTVL
notes: unpaired VL domain; also called unpaired A8 VL domain
B10: G11 VL (other)
VL domain: EIVLTQSPGTLSLSPGEGATLSCRASQSVSSRNLAWYQQKPGQAPRLLIYGGSIRASGTSTRFSGSGSGTDFTLTINRLEPEDFAVYYCQQYGDSVFTFGPGTKVDIK
notes: unpaired VL domain; also called unpaired G11 VL domain
B11: G8 VL (other)
VL domain: QSVLTQSPGTLSLSPGDRATLSCRASQSLSGTYLAWYQQKPGQAPRLLIYDASNRAAGIPKRFSGSGSRTDFTLTISRVDPADSAVYYCQQYGSALLTFGGGTKVTVL
notes: unpaired VL domain; also called unpaired G8 VL domain
B12: B6 (scFv, V domains shown)
VH: QVQLVQSGAEVKKPGSSVRVSCKASGGTFSRHAISWVRQAPGQGLEWIGGILPILKTPNYAQRFQGRVTINADESTSTVYMEMSSLRSEDTAVYYCATHGGDRSYWGQGTLVTVSS
VL: EIVLTQSPGTLSLSPGERATLSCRASQSFGSNYLAWYQHKPGQAPRLLIFAASNRATGIPDRFTGSASGTDFTLTINRVEPEDLAVYYCQQYGSFPYSFGQGTKLEIK
notes: also called XB2202/B6 scFv
B13: H5 (scFv, V domains shown)
VH: B12 VH
VL: SYELTQPPSVSMAPGKTARITCGGNNLGSKIVHWYQQKPGQAPVVVIYSDRDRPSGVPERFSGSNSGNSATLTISGVEAGDEADYYCQVWDSATDHVVFGGGTKLTVL
notes: also called XB2202/H5 scFv
B14: G5 (scFv, V domains shown)
VH: B12 VH
VL: DIQMTQSPSSLSASVGDRVTITCRASQDISSSLAWYQQKPGKAPKPLIYDASTLQTGVPSRFSGRASGTDFTLTIDSLQPEDFATYCCQQFNSYPLSFGGGTKVELKR
notes: also called XB2202/G5 scFv
B15: F3 (scFv, V domains shown)
VH: B12 VH
VL: QSVLTQPPSVSVAPGKTARITCGGNNIGSKSVHWYQQKPGQAPVLVIYYDSDRPSGIPERFSGSNSGNTATLTISRVEAGDEADYYCQVWDSSSDHWVFGGGTKLTVL
notes: also called XB2202/F3 scFv
B16: D1 (scFv, V domains shown)
VH: B12 VH
VL: DIVMTQTPLSLSVTPGQPAAISCKSSQSLVHRDGKTYLYWYLQKPGHSPQLLVYEASSRFSGVPDRISGSASGTQFTLNISRVEAEDVGLYYCMQSRNLPKTFGQGTKVEIK
notes: also called XB2202/D1 scFv
B17: C7 scFv (scFv, V domains shown)
VH: B1 VH
VL: B6 VL domain
notes: as for B1
B18: G8 scFv (scFv, V domains shown)
VH: B1 VH
VL: B11 VL domain
notes: as for B1
B19: A8 scFv (scFv, V domains shown)
VH: B1 VH
VL: B9 VL domain
notes: as for B1
B20: B11 scFv (scFv, V domains shown)
VH: B1 VH
VL: B1 VL with L38Q, S50Y, T57S, D61V, F63V, A93G, G94S, F97W, P101Q
notes: VL of the second round pool paired with XB1511 VH; also called XB1511/B11 scFv

Positions count from the first letter of the chain named.

The target in one assay is T1, human PDGFRβ (human, UniProt P09619 33-530, limits assumed).
T1 construct: also called hPDGFRβ; recombinant human PDGFRβ
T1 sequence (P09619 33-530 limits assumed): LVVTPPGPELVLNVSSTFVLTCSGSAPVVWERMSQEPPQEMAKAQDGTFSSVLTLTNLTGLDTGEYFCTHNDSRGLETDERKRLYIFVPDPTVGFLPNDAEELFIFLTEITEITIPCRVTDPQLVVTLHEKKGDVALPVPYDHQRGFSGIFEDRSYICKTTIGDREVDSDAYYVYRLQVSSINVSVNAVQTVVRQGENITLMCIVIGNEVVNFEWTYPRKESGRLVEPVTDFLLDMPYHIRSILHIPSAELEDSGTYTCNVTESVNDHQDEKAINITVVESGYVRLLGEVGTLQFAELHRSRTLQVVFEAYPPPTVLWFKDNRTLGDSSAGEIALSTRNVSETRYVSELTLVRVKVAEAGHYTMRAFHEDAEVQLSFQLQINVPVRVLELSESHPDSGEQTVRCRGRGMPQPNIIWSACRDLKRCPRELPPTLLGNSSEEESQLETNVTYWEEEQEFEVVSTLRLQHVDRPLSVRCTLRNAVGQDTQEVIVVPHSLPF
Put plainly: solution equilibrium binding: 35S-Met labelled in vitro translated protein, human PDGFRβ titrated, capture on protein A beads, scintillation counts. On the procedure:
The affinity of several scFvs was determined by solution based equilibrium binding assay. Specifically, 120 pmol of scFv RNA was translated into free protein with ³⁵S Met incorporated. The translated reaction mixture was 3-fold diluted in binding buffer containing 1×PBS with 0.025% triton, 1 mg/mL BSA and 0.1 mg/mL sssDNA. Human PDGFRβ was diluted in the same binding buffer to final concentrations from 100 nM to 0 nM. The diluted scFv mixture was incubated with hPDGFRβ in final volume of 100 ul on Kingfisher plates (Thermofisher Scientific, 97002084). Following incubation, 25 ul of protein A magnetic beads (Invitrogen) were used to capture the PDGFRβ from solution. The captured PDGFRβ was washed and eluted in kingfisher Reader (Thermofisher Scientific). The amount of scFv (labeled with ³⁵S Met) bound to the magnetic bead-immobilized hPDGFRβ was counted using a scintillation counter and the Kd was calculated with Graph Pad Prism 5.
What is called Kd is the constant that tells how readily two partners part at equilibrium. The low end stands for higher affinity, the high end for lower affinity. With B1, the Kd was determined as 24.4 nM. On the same count and under the same terms, for B2 the value was 23.2 nM; for B3, 12.9 nM.

A further assay deals with T1, human PDGFRβ. Put plainly: ELISA of unpaired VL domains: plate coated with human PDGFRβ or human Fc, OD 450 nm. The method, then:
A PDGFRβ binding ELISA assay was performed to assess the binding of the scFv to immobilized PDGFRβ and to determine the EC50. Specifically, 2 ug/mL of human PDGFRβ and human Fc or IgG in PBS was immobilized on Maxisorp plates at 4° C. overnight. The plate was then washed and blocked with superblock. […] 100 ul of the diluted scFv lysate was loaded into each well of Maxisorp plates and incubated for 1 hour at room temperature. scFv that bound to immobilized PDGFRβ was detected by anti-flag antibody-HRP at 1:5000 dilution and a TMB substrate. The plate was read on a Molecular Device plate reader with end point assay at OD 450 nm.
(In an ELISA, binding on a coated surface is turned into a signal by an enzyme label.)
On to B4, for which the binding result is reported as “no binding (tested: no concentration on the sheet)”. With B5, the binding result is listed as “no binding (tested: no concentration on the sheet)”. Still for that read-out and setting: for B6 the value was “no binding (tested: no concentration on the sheet)”; for B7, “no binding (tested: no concentration on the sheet)”.

B8: the binding result was “no binding (tested: no concentration on the sheet)”.

On to B9, for which the binding result was “no binding (tested: no concentration on the sheet)”. For B10, the binding result is on record as “no binding (tested: no concentration on the sheet)”. On to B11, for which the binding result is reported as “no binding (tested: no concentration on the sheet)”.

The target in another assay is T1, human PDGFRβ. Put plainly: ELISA: plate coated with 2 ug/mL human PDGFRβ or human IgG, in vitro translated crude scFv lysate diluted 1:3, anti-flag-HRP, OD450. On the procedure: (§1) A PDGFRβ binding ELISA assay was performed to assess the binding of the scFv to immobilized PDGFRβ and to determine the EC50. Specifically, 2 ug/mL of human PDGFRβ and human Fc or IgG in PBS was immobilized on Maxisorp plates at 4° C. overnight. The plate was then washed and blocked with superblock. In vitro translated crude scFv lysate was diluted 1:3 in 1×PBST. 100 ul of the diluted scFv lysate was loaded into each well of Maxisorp plates and incubated for 1 hour at room temperature. scFv that bound to immobilized PDGFRβ was detected by anti-flag antibody-HRP at 1:5000 dilution and a TMB substrate. The plate was read on a Molecular Device plate reader with end point assay at OD 450 nm.
With B12, the binding result was “binds”. For B13, the binding result is on record as “binds”. Consider B14, for which the binding result is “binds”.

As to B15, the binding result is “binds”. Same read-out and setting: for B16 the value was “binds”.

The next assay has as its target T1, human PDGFRβ. Put plainly: ELISA: plate coated with 2 ug/mL human PDGFRβ or human Fc, in vitro translated crude lysate diluted 1:3, anti-flag-HRP, OD450. On the procedure:
as §1
Consider B17, for which the binding result was “binds”.

For B18, the binding result is on record as “binds”. Still for that read-out and setting: the same measure for B19: “binds”; for B20: “binds”.

The values are drawn from patent US20130177572A1 (X BODY, published 2013).
